Data taken from US20260325660 (published 2026).

Experiments:
[1] = biological target: ROR1 with Ig-like domain removed (human); assay: FACS
human ROR2-ECD = human ROR2-ECD (human, UniProt Q01974); assay: ELISA
[2] = biological target: T1, human ROR1 on tumor cell surface (human, UniProt Q01973); assay: FACS, NCI-H226
[3] = biological target: ROR1 with Ig-like domain removed (human); assay: FACS; remark: listed apart in the source
[4] = biological target: T1, human ROR1 on tumor cell surface; assay: FACS, MDA-MB-231
[5] = biological target: ROR1 with Kringle domain removed (human); assay: FACS
[6] = biological target: ROR1 extracellular segment (with transmembrane) on CHO (human); assay: FACS
human ROR1-ECD = human ROR1-ECD (human); assay: ELISA
[7] = biological target: T2, ROR1 with Frizzled domain removed (human); assay: FACS
T2 chain: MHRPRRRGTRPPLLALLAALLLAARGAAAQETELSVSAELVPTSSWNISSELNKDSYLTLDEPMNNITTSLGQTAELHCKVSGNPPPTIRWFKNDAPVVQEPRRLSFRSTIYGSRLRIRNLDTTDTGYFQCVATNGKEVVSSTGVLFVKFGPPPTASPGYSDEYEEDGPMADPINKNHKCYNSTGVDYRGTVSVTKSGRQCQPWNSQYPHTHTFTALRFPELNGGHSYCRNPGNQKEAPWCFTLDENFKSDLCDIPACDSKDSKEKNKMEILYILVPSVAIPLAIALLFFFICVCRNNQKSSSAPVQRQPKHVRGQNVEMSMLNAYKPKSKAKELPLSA

T1 sequence (Q01973 30-406): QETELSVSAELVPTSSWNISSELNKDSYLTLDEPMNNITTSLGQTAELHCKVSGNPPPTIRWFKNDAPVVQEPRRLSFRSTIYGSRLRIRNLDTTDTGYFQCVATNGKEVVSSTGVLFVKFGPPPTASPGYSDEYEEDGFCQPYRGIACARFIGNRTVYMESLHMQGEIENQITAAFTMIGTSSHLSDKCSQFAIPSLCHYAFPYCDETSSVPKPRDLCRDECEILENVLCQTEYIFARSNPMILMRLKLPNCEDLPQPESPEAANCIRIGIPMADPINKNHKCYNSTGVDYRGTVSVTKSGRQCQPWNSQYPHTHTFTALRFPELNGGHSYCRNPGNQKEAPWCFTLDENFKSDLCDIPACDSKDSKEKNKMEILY
Sequence of human ROR2-ECD (Q01974 34-403): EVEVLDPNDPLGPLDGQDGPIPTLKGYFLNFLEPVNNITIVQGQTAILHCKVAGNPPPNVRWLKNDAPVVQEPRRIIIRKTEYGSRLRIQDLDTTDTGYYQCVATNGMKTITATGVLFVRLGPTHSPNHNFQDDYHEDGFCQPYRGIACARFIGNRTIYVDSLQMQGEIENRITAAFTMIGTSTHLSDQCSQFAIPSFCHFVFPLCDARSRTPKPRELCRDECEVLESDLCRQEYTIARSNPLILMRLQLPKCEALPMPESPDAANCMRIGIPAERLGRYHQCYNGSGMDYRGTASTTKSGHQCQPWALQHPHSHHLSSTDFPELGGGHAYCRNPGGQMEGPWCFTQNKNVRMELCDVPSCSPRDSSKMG
Sequence of human ROR1-ECD (human) (chain, as listed by the source): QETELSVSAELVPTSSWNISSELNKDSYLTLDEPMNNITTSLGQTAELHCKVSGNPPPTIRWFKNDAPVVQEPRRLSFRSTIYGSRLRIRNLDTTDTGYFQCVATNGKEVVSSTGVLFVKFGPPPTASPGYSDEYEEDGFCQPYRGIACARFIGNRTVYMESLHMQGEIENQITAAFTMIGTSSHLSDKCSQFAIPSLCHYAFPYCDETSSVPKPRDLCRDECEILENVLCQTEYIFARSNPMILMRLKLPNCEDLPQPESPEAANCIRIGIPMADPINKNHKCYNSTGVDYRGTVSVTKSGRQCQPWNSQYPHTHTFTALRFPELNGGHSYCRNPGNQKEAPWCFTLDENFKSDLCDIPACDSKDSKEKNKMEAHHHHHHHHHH

B1: mAb005c (antibody, V domains shown)
VH: EVQLVESGGGLVKPGGSLKLSCAASGFTFNSYAMSWVRQTPEKRLEWVATISDGGSYTYYPDNEKGRFTISRDNAKNNLYLQMSHLKSEDTAIYYCVRGGYYYNLYAMDYWGQGTSVTVSS
VL: DIVLTQSPASLAVSLGQRAIISCKASQSVSFPGTSLMHWYQQKPGQQPKLLIYRASNLEAGVPTRFSGSGSRTDFTLNIHPVEEDDTATYYCQQSREYPWTFGGGTQLEIK
Does B1 bind [1]?
Result: no binding

B2: mAb003c (antibody, V domains shown)
VH: EVQLVESGGGLVKPGGSLKLSCAASGFTFSSYAMSWVRQTPEKRLEWVATISDGGSYTYYPDSVKGRFTISRDNAKNNLYLQMSHLKSEDTDMYYCVRGGYYYNLYAMDYWGQGTSVTVSS
VL: DIVLTQSPASLAVSLGQRAIISCKASQSVSFAGTSLMHWYQQKPGQQPKLLIYRASNLEAGVPTRFSGSGSRADFTLNIHPVEEDDAATYYCQQSGEYPWTFGGGTKLEIK
Does B2 bind [1]?
Result: no binding

B3: Hu005-46 (antibody, V domains shown)
VH: EVQLVESGGGLVKPGGSLRLSCAASGFTFNSYAMSWVRQTPGKRLEWVATISDAGSYTYYPDNEKGRFTISRDNAKNSLYLQMNSLRAEDTAIYYCVRGGYYYNLYAMDYWGQGTLVTVSS
VL: DIVLTQSPDSLAVSLGERATINCKASQSVSFPGTSLMHWYQQKPGQQPKLLIYRASNLEAGVPDRFSGSGSRTDFTLTISSLQAEDVAVYYCQQSREYPWTFGGGTKVEIK
Does B3 bind (human ROR2-ECD)?
Result: no binding

B4: mAb002c (antibody)
chain 1: EVQLQQSGPELVKPGASVKMSCKTSGYTFTDYNLHWVKQSHRRSLEWIGYINPNNGGTTYNQKFKGKATLTVDKSSSTAYMELRSLTSEDSAVYYFVRRVRTGTGFDYWGQGTTLTVSS
chain 2: EVLMTQTPLSLPVSLGDQASISCKSSHNILHTNGNTYLEWYLQKPGQSPKLLIYKVSNRFSGVPDRFSGSGSGTDFTLTISRVEAEDLGVYYCFQGSRFPYTFGGGTKLEIK
B4 was tested. Which EC50 [2] did it give?
The EC50 was 140 pM.

And the EC50 [3]?
The EC50 was 350 pM.

And the EC50 [4]?
The EC50 was 200 pM.

What about the EC50 [5] of the same binder?
The EC50 was 660 pM.

And the EC50 [6]?
The EC50 was 600 pM.

And the EC50 (human ROR1-ECD)?
The EC50 was 13 pM.

What about the EC50 [7] of the same binder?
Its EC50 is 860 pM.

B5: mAb002 (mouse) (antibody)
chain 1: EVQLQQSGPELVKPGASVKMSCKTSGYTFTDYNLHWVKQSHRRSLEWIGYINPNNGGTTYNQKFKGKATLTVDKSSSTAYMELRSLTSEDSAVYYFVRRVRTGTGFDYWGQGTTLTVSS
chain 2: EVLMTQTPLSLPVSLGDQASISCKSSHNILHTNGNTYLEWYLQKPGQSPKLLIYKVSNRFSGVPDRFSGSGSGTDFTLTISRVEAEDLGVYYCFQGSRFPYTFGGGTKLEIK
How did the EC50 [4] turn out when B5 was run?
The EC50 was 110 pM.

And the EC50 (human ROR1-ECD)?
Its EC50 is 28 pM.

B6: UC-961 (antibody, V domains shown)
VH: QVQLQESGPGLVKPSQTLSLTCTVSGYAFTAYNIHWVRQAPGQGLEWMGSFDPYDGGSSYNQKFKDRLTISKDTSKNQVVLTMTNMDPVDTATYYCARGWYYFDYWGHGTLVTVSS
VL: DIVMTQTPLSLPVTPGEPASISCRASKSISKYLAWYQQKPGQAPRLLIYSGSTLQSGIPPRFSGSGYGTDFTLTINNIESEDAAYYFCQQHDESPYTFGEGTKVEIK
Does B6 bind [1]?
Result: no binding

B7: Hu001-02 (antibody, V domains shown)
VH: QVQLVQSGAEVKKPGASVKVSCKASGYTFTDYNLHWVRQAPGQGLEWMGYINPNHDATSYNQKFQGRVTMTRDTSTSTVYMELSSLRSEDTAVYYCARRVRTGTGLDDWGQGTTVTVSS
VL: DVVMTQSPLSLPVTLGQPASISCRSSHNIVHTNANTYLEWYQQRPGQSPRLLIYKVSNRFSGVPDRFSGSGSGTDFTLKISRVEAEDVGVYYCFQGSRFPYTFGGGTKVEIK
Does B7 bind (human ROR2-ECD)?
Result: no binding
